According to patent US11267875B2, “Humanized anti-DKK2 antibody and uses thereof” (YALE UNIVERSITY, priority 2015, dated 2022):

Test system: NK-92MI cells
Assay: Granzyme B expression in human NK cell line NK92 by flow cytometry
Type: cell-based
Conditions: recombinant proteins 200 ng/ml, 24 hours
Method: Recombinant Wnt5a and DKK2 (200 ng/ml) were added to NK-92MI cells for 24 hours and Granzyme B contents were analyzed by flow cytometry.
Human NK cell line NK-92 and primary mouse NK cells from spleens and MC38-grafted tumors were tested for their expression of Granzyme and cytotoxic activity in the presence or absence of recombinant proteins of DKK2, Wnt3a, Wnt5a and DKK1, and in the presence or absence of Wnt inhibitors (including LGK-974) and GSK inhibitors (including CHIR 99021). In this manner, the regulation of NK cell activation by DKK2 and Wnt was assessed.

| Molecule | Granzyme B expression |
| --- | --- |
| DKK2: recombinant DKK2 protein added to NK-92MI cells (protein) KLNSIKSSLGGETPGQAANRSAGMYQGLAFGGSKKGKNLGQAYPCSSDKECEVGRYCHSPHQGSSACMVCRRKKKRCHRDGMCCPSTRCNNGICIPVTESILTPHIPALDGTRHRDRNHGHYSNHDLGWQNLGRPHTKMSHIKGHEGDPCLRSSDCIEGFCCARHFWTKICKPVLHQGEVCTKQRKKGSHGLEIFQRCDCAKGLSCKVWKDATYSSKARLHVCQKI | inhibited Granzyme B expression |
| Wnt5a: recombinant Wnt5a protein added to NK-92MI cells (protein, UniProt P41221 62-380, looked up) Protein Wnt-5a: IIGAQPLCSQLAGLSQGQKKLCHLYQDHMQYIGEGAKTGIKECQYQFRHRRWNCSTVDNTSVFGRVMQIGSRETAFTYAVSAAGVVNAMSRACREGELSTCGCSRAARPKDLPRDWLWGGCGDNIDYGYRFAKEFVDARERERIHAKGSYESARILMNLHNNEAGRRTVYNLADVACKCHGVSGSCSLKTCWLQLADFRKVGDALKEKYDSAAAMRLNSRGKLVQVNSRFNSPTTQDLVYIDPSPDYCVRNESTGSLGTQGRLCNKTSEGMDGCELMCCGRGYDQFKTVQTERCHCKFHWCCYVKCKKCTEIVDQFVCK | inhibited Granzyme B expression |
